# Target: T1, human GFRAL (human, UniProt Q6UXV0 19-394)
# T1 sequence (looked up): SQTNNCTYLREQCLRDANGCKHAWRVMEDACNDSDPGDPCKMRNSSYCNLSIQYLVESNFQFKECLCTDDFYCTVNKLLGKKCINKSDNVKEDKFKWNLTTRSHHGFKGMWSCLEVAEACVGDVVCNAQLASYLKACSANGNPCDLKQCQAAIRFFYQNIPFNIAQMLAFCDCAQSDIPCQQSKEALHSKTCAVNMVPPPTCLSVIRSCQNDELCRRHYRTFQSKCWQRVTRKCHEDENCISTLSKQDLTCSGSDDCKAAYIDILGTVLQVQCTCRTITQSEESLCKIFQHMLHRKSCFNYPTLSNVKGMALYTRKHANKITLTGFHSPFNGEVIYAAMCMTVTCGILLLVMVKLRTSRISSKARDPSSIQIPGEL
# Assay: cell-based or functional assay
binder,measurement,value
Native GDF15 (SEQ ID NO: 9) (ligand) ARNGDHCPLGPGRCCRLHTVRASLEDLGWADWVLSPREVQVTMCIGACPSQFRAANMHAQIKTSLHRLKPDTVPAPCCVPASYNPMVLIQKTDTGVSLQTYDDLLAKDCHCI,"1% HSA GDF15 activity (EC50, pM); SRE luciferase reporter",8.2 pM
same,"HSA free GDF15 activity (EC50, pM); SRE luciferase reporter",10.3 pM

# Reference: patent US20230130599A1 (BEIJING QL BIOPHARMACEUTICAL, published 2023)
